Patent publication US20080305097A1, “Use of Protease or a Protease Inhibitor for the Manufacture of Medicaments” (YEDA RESEARCH AND DEVELOPMENT CO., LTD., priority 2004, published 2008)

How the values were obtained:
[1] = test system: TRAP+ active osteoclasts; experiment: In vivo osteoclast activation by RANKL, TRAP staining; parameters: species or system Balb/c mice; conditions: RANKL 2 daily subcutaneous injections of 5 mcg for 3 days
Method: (§1) Balb/c mice were injected with soluble murine RANKL (2 injections per day, 5 mcg per subcutaneous injection). Bones of treated mice were stained for TRAP (in red) indicating mature activated osteoclasts (A). Levels of MMP-9 in BM fluids were determined by zymography assay (B). The expression of CTK mRNA was detected by RT-PCR (C).
(§2) Mice were administrated with RANKL as follows: 2 daily subcutaneous injections of 5 mcg for 3 days and after two more days in the absence of RANKL. The following parameters were monitored in both treated and control untreated mice: TRAP+ activated osteoclasts (FIG. 11A), induction of osteoclast proteases MMP-9 (FIG. 11B) and CTK (FIG. 11C) in the BM and mobilization (FIG. 12).

[2] = test system: CTK; experiment: CTK expression in BM after RANKL, RT-PCR; assay type: in vivo, Balb/c mice; conditions: RANKL 2 daily subcutaneous injections of 5 mcg for 3 days
Method: as §1, §2

[3] = test system: progenitors; experiment: Progenitor mobilization by RANKL, semisolid cultures; assay type: in vivo, Balb/c mice; conditions: RANKL 2 daily subcutaneous injections of 5 mcg for 3 days
Method: (A) Progenitor mobilization assayed in semisolid cultures, induced by SDF-1 (10 mcg), HGF (1.5 mcg) injected for 5 days and sRANKL (2×5 mcg) injected for the first 3 days. (B) RANKL induced mobilization is inhibited by administration of anti CXCR4 antibodies (10 mcg) and MMP2/9 inhibitor (100 mcg), injected for the last 2 days. (C) Osteoclast precursors in the BM of treated mice were assayed by culturing BM cells for 4 days with M-CSF and sRANKL, followed by TRAP staining to detect mature active osteoclasts.
as §2

[4] = test system: MMP-9; experiment: MMP-9 in BM after RANKL, zymography; assay type: in vivo, Balb/c mice; conditions: RANKL 2 daily subcutaneous injections of 5 mcg for 3 days
Method: as §1, §2

[5] = test system: SDF-1; experiment: Migration of Pre B ALL G2 cells towards CTK treated SDF-1; assay type: cell-based; conditions: SDF-1 125 ng, CTK 1 mcg/ml, about 16 hours, 37° C.
Method: We employed an in-vitro functional assay for SDF-1 (Example 10) to check the effect of CTK on SDF-1 activity. The assay consisted on migration of leukemic Pre B ALL G2 (cells which migrate very well to relative low concentrations of SDF-1, Spiegel, Blood, 2004) to SDF-1.
In brief, SDF-1 (125 ng) was incubated with CTK ([…]) in a 100 ul reaction volume adjusted with PBS, for about 16 hours in 37° C. In some samples, protease inhibitor (PI, 1 ul, Sigma, containing the cystein protease inhibitor E-64) was preincubated with CTK for 1.5 hrs, in 37° C., before SDF-1 was added. The leukemic Pre B ALL G2 cells were loaded on transwells and migration towards CTK treated as well as non treated SDF-1 was measured.
125 ng/ml SDF-1α was kept untreated or incubated with CTK (1 mcg/ml) for overnight in 37° C. To inhibit enzymatic activity of CTK, 1 and 2 mcl of protease inhibitor (Sigma) was incubated with CTK for 1.5 h before adding to SDF-1. RPMI (600 μl) supplemented with 10% FCS was added with tested SDF-1 to the lower chamber of a Costar 24-wells transwell (Corning (pore size 5 μm), NY). 1×10^5 pre B ALL G2 cells in 100 μl medium were loaded to the upper chamber and were allowed to migrate for 4 hours at 37° C. Migrating cells were collected from the lower chamber and counted for 60 seconds using a FACSCalibur. Control spontaneous migration was performed without SDF-1α in the lower chamber.

[6] = test system: SDF-1; experiment: SDF-1 cleavage by CTK, SDS-PAGE and blot with anti SDF-1 polyclonal Ab or K15C; assay type: biochemical; conditions: SDF-1 20 ng, CTK 1.76 ug/ml
Method: SDF-1 (20 ng) was incubated with CTK (1.76 ug/ml) for 0, 15, 30, and 60 minutes at 37OC. Samples were subjected than to SDS-PAGE, blotted and detected with anti SDF-1 polyclonal Ab or with the monoclonal Ab K15C, which specifically binds the amino terminal part of the chemokine.
We further explored the kinetics of SDF-1 cleavage by CTK at a time scale of minutes (FIG. 14). Samples of SDF-1 (20 ng) were incubated with CTK (1.76 ug/ml) for 0, 15, 30, 60, 120 and 240 minutes at 37° C. After collection, the samples were subjected to SDS-PAGE and blotted and detected with anti SDF-1 polyclonal Ab (R&D) or with the monoclonal Ab K15C which specifically binds the amino terminal part of the chemokine.

[7] = test system: SDF-1; experiment: SDF-1 transcription (RT-PCR) and secretion (ELISA) in primary calvaria osteoblasts; assay type: cell-based, mouse; conditions: 50 ng/ml, 3 days
Method: Osteoblast were incubated with G-CSF, HGF or remained untreated, and SDF-1 transcription and expression was determined in such cells (FIG. 9).
Primary calvaria osteoblasts were cultured for 3 days in the presence of SDF-1 (PeproTech, 100 […]), HGF (PeproTech, 50 ng/ml) and G-CSF (Filgrastin, Roche, 50 ng/ml). Conditioned media was collected to determine SDF-1 concentration by ELISA, as described in Example 2. Determination of SDF-1 transcription and expression as in Example 2.

[8] = test system: TRAP+ multinucleated osteoclasts; experiment: Osteoblast/BM co-culture, TRAP+ multinucleated osteoclast count; assay type: cell-based, mouse; conditions: G-CSF 50 ng/ml, HGF 50 ng/ml, SDF-1 10 and 100 ng/ml; 5 days
Method: Osteoclast precursors are stimulated by cell-cell contact with osteoblasts to become activated multinucleated TRAP+ bone resorbing cells. To obtain active osteoclasts in vitro, a clvarian osteoblasts are incubated with Vitamine D3 and PG2E which potentiate their M-CSF production and RANKL expression, needed for osteoclast activation. BM cells which contain osteoclast precursors are seeded then on the osteoblast monolayer, for 5 days, to obtain active multinucleated osteoclasts.
A co-culture of primary mouse osteoblasts and BM (containing ocl precursors as detailed above) was seeded in the presence of G-CSF (50 ng/ml), HGF (50 ng/ml), or SDF-1 (10 and 100 ng/ml). Five days later, TRAP+ multinucleated osteoclasts in the cultures were stained (as described in Example 1) and counted 5 days later.

B1: RANKL: Receptor Activator of NK-kappaB Ligand, soluble murine, osteoclast differentiating factor (protein, UniProt O35235 70-316, looked up)
extracellular domain: YFRAQMDPNRISEDSTHCFYRILRLHENADLQDSTLESEDTLPDSCRRMKQAFQGAVQKELQHIVGPQRFSGAPAMMEGSWLDVAQRGKPEAQPFAHLTINAASIPSGSHKVTLSSWYHDRGWAKISNMTLSNGKLRVNQDGFYYLYANICFRHHETSGSVPTDYLQLMVYVVKTSIKIPSSHNLMKGGSTKNWSGNSEFHFYSINVGGFFKLRAGEEISIQVSNPSLLDPDQDATYFGAFKVQDID
modifications: extracellular domain
[1]
  formation of TRAP+ active osteoclasts: induced formation of TRAP+ active osteoclasts along the endosteum
[2]
  CTK expression in the bone marrow: induction
[3]
  mobilization of progenitors: mobilization of progenitors
[4]
  MMP-9 expression in the bone marrow: induction

B2: CTK: cathepsin K, lysosomal cysteine protease, the major osteoclast bone resorbing enzyme (protein, UniProt P43235 115-329, looked up)
Cathepsin K: APDSVDYRKKGYVTPVKNQGQCGSCWAFSSVGALEGQLKKKTGKLLNLSPQNLVDCVSENDGCGGGYMTNAFQYVQKNRGIDSEDAYPYVGQEESCMYNPTGKAAKCRGYREIPEGNEKALKRAVARVGPVSVAIDASLTSFQFYSKGVYYDESCNSDNLNHAVLAVGYGIQKGNKHWIIKNSWGENWGNKGYILMARNKNNACGIANLASFPKM
[5]
  chemotactic activity of SDF-1 after incubation with CTK: abolished
[6]; 0-240 minutes, 37° C.
  kinetics of SDF-1 cleavage by CTK: fast and site specific SDF-1 cleavage
[6]; detection with K15C (amino terminal part)
  site of SDF-1 cleavage by CTK: N-terminally cleaved

B3: G-CSF: granulocyte colony-stimulating factor (Filgrastin, Roche) (protein, UniProt P09919 31-207, looked up)
Granulocyte …: TPLGPASSLPQSFLLKCLEQVRKIQGDGAALQEKLVSECATYKLCHPEELVLLGHSLGIPWAPLSSCPSQALQLAGCLSQLHSGLFLYQGLLQALEGISPELGPTLDTLQLDVADFATTIWQQMEELGMAPALQPTQGAMPAFASAFQRRAGGVLVASHLQSFLEVSYRVLRHLAQP
modifications: filgrastim
[7]
  SDF-1 transcription in osteoblasts: induce
[7]; conditioned media ELISA
  SDF-1 production in osteoblasts: induce
[8]
  level of activated TRAP+ osteoclasts: significantly increased
